Results from article PMC4545946, “Human Papillomavirus Type 18 cis-Elements Crucial for Segregation and Latency”.

Tests used:
Settings in all cases: protein: recombinant; tags: N-terminal Strep-II; chain copies: 2; label: 32P 5' end
[1] = target: T1, HPV-18 E2 (N-terminal Strep-II tag) (Human papillomavirus type 18, UniProt P06790 1-365); assay: EMSA; two dimers, cooperative; highest k12 (value only in Fig 4D)
[2] = target: T1, HPV-18 E2 (N-terminal Strep-II tag); assay: EMSA; two dimers, cooperative; k12 order 1-Linker < 3-Linker < 2-Linker (values only in Fig 4D); >95% probe bound at 1.65 uM E2
[3] = target: T1, HPV-18 E2 (N-terminal Strep-II tag); assay: EMSA; two dimers, cooperative; intermediate k12 (value only in Fig 4D)

T1 sequence (P06790 whole entry): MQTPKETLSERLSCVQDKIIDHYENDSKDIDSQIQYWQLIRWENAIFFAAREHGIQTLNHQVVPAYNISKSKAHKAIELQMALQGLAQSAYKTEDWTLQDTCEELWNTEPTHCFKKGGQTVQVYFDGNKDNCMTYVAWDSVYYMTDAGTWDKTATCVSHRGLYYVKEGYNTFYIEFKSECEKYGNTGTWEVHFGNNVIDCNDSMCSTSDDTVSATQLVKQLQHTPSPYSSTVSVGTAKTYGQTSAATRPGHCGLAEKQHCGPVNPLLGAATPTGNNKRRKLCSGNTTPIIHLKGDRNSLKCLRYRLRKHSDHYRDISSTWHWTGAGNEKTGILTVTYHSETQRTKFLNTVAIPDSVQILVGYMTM

B1: 2-Linker (E2BS #1 and #2, 8 bp spacer) (dsDNA)
DNA 1: ACCGAAAACGGTCGGGCGGGACCGAAAACGGT
DNA 2: ACCGTTTTCGGTCCCGCCCGACCGTTTTCGGT
[1]
  binding result: binds

B2: 1-Linker (wt, E2BS #1 and #2 with CGGG spacer) (dsDNA)
DNA 1: ACCGAAAACGGTCGGGACCGAAAACGGT
DNA 2: ACCGTTTTCGGTCCCGACCGTTTTCGGT
[2]
  binding result: binds

B3: 3-Linker (E2BS #1 and #2, 12 bp spacer) (dsDNA)
DNA 1: ACCGAAAACGGTCGGGCGGGCGGGACCGAAAACGGT
DNA 2: ACCGTTTTCGGTCCCGCCCGCCCGACCGTTTTCGGT
[3]
  binding result: binds
